Results published in patent US11103562B2, “Composition comprising alkaline phosphatase for use in the treatment of arthritides” (AMRIF BV, priority 2017, dated 2021).
Entries after “also recorded” stand apart in the source; their conditions may differ.

Key:
[1] = system: ED1+ and ED2+ synovial macrophages; test: Synovial macrophage infiltration (ED1/ED2 immunohistochemistry) in knees of rats with mBSA antigen-induced arthritis; assay type: in vivo, rat
Experimental: Experiments were performed using a rat model for RA as published by Chandruputla et al. (BioMed Int, 2015) to show the effects of recombinant human alkaline phosphatase (hRESCAP) on RA. hRESCAP was compared with MTX used as a positive control. The antigen-induced rat model uses two subcutaneous immunizations with a mixture of methylated bovine serum albumin (mBSA), CFA (complete Freund's adjuvant antigen) and CBP (custom Bordetella pertussis antigen) and intra-articular injections of mBSA on one side knee and saline (negative control) on the counter knee. Immunohistochemical (IHC) analysis specifically focussed on infiltration with macrophages and knee swelling is followed over time after therapeutic treatment with MTX, or hRESCAP.
In the rat model, RA is induced in the right knee (RA knee), the contralateral left knee serves as a internal control (control knee). The model allows various options for therapeutic interventions, either before intra-articular injections or during boosts injections with mBSA. Two hours prior to AP administration, rats received a dose of levamisole (50 mg/kg, s.c.). For comparison, arthritic rats received treatment with methotrexate (1 mg/kg, i.p.).
At the end of the experiment, rats were sacrificed and knees were decalcified and processed for IHC analysis of synovial macrophage infiltration, including 2 rat macrophage antibodies; ED1 (homolog of human CD68) and ED2 (homolog of human CD163, a proposed marker for human M2 anti-inflammatory macrophages). IHC analysis of ED1 and ED2 macrophages was performed in multiple quadrants of synovial tissue, as described by Chandruputla et al (BioMed Int, 2015). Macrophage counting included synovial lining layer (SL 1-10) and synovial sublining layers (SL 1-20).
All rats (except healthy) were immunized and arthritis was induced via 1× or 4× intra-articular (i.a) mBSA injections, 4 or 5 days apart in the arthritic (right) knee, the contralateral (left, non-arthritic) knee serving as control knee. For therapeutic interventions, AP (human recombinant placenta AP, TNO, Zeist, The Netherlands) was administered subcutaneously (s.c.) at a dose of 700 U/kg (≈200 μg), MTX (VU University Medical Centers' Pharmacy) was administered intra-peritoneal (i.p.) at two dosages: 0.3 mg/kg (low dose) and 1.0 mg/kg (high dose). The rats were divided in 8 groups, based on different treatments and treatment schedules. In a prophylactic setting, two rats received AP twice prior to intra-articular (i.a.) arthritis induction and four rats received AP twice prior to intra-articular and 4× PBS in between i.a. injections. In the treatment groups, arthritic rats were administered AP twice or 4× after arthritis induction, either as standalone therapy or in combination with low or high dose MTX. Control rats received 500 μL of PBS (i.p.). […] At the end of study, all rats were sacrificed and tissues were excised for further processing and various analyses.
The arthritic and contralateral knees from all rats were dissected in toto and fixed for 7 days at 4° C. in 10% freshly made paraformaldehyde in PBS with 2% sucrose (pH=7.3) prior to decalcification in osteosoft (101728, Merck, Germany) for ˜2.5 weeks at room temperature. Thereafter, knees were embedded in paraffin. Sections of 5 μm were cut through the centre of the joint in longitudinal direction and stained with haematoxylin and eosin (HE) to assess the degree of inflammation in synovial tissue. Liver and spleen sections from all rats were dissected and fixed in 4% paraformaldehyde for 24 h before embedding in paraffin. Sections of 5 μm were cut and stained initially with HE and then for macrophages Staining for macrophages with ED1 (homologous to human CD68), and ED2 (homologous to human CD163, a marker for M2 anti-inflammatory macrophages), or isotype control antibody was performed. Images were captured using a Leica 4000B microscope and Leica digital camera DC500 (Microsystems B. V. Rijswijk, The Netherlands). […]

[2] = AP plasma pharmacokinetics (enzymatic PNP assay) in healthy and arthritic rats; assay type: in vivo, rat; conditions: for persistence of increased plasma AP levels: 4 hour sampling
Experimental: An enzymatic assay was used to determine plasma concentrations of alkaline phosphatase prior to and 0-4 hours after administration a dose of 700 U/kg AP to healthy rats and arthritic rats, FIG. 7. At time points 0, 15, 60, 120 and 240 min after AP administration, a blood sample was drawn from the tail vain of the rats and transferred to a lml Eppendorf microtube containing heparin (454081, Greiner bio-one, Charlotte, USA) as anti-coagulant. As a control, blood was drawn at the same time points from arthritic rats that were injected a t=0 with 500 μl PBS. Eppendorf tubes were centrifuged at 3,000×g for 5 min at 4° C., after which the plasma was collected and stored at −80° C. until use.
The enzymatic assay for AP is based on the conversion of the substrate paranitrophenol-phosphate (PNP; 104105, Sigma-Aldrich, Zwijdrecht, the Netherlands) to paranitrophenol which is measured spectrophotometrically at 405 nm at 25° C. To a 3 ml reaction cuvette was added 2.9 ml substrate solution (containing final concentrations of 25 mM glycine, 10 mM MgCl2, 3 mM PNP, adjusted to pH 9.6 with NaOH). The reaction was started by adding 30 μl of plasma sample, 1:1 diluted in enzyme diluent buffer (25 mM glycine, 1 mM MgCl2, 0.1 mM ZnCl2, 10% (v/v) glycerol, adjusted to pH 9.6 with NaOH). In parallel a reference cuvette was assayed without substrate. The reaction was followed on line for 5 min at 25° C. with continuous monitoring increase of absorbance at 405 nm using a (10037-434, VWR, Radnor, Pa.<USA) spectrophotometer. From the linear phase of A405 increments, AP activity in plasma samples (in U/L) was calculated from a standard curve with serial dilutions of a human recombinant placenta AP stock solution. One Unit of activity is defined as the amount of enzyme decomposing 1 μmol of PNP/min at 25° C.

[3] = 2× AP administration followed by 4× PBS, p<0.01
[4] = prophylactic AP treatment, 2× AP before intra-articular antigen injection
[5] = prophylactic: 2× AP (700 U/kg) prior to intra-articular mBSA injection, p<0.01

B1: AP: human recombinant placenta alkaline phosphatase (hRESCAP; TNO, Zeist), an ectophosphatase (protein, UniProt P05187 23-506, looked up)
Alkaline phosphatase, …: IIPVEEENPDFWNREAAEALGAAKKLQPAQTAAKNLIIFLGDGMGVSTVTAARILKGQKKDKLGPEIPLAMDRFPYVALSKTYNVDKHVPDSGATATAYLCGVKGNFQTIGLSAAARFNQCNTTRGNEVISVMNRAKKAGKSVGVVTTTRVQHASPAGTYAHTVNRNWYSDADVPASARQEGCQDIATQLISNMDIDVILGGGRKYMFRMGTPDPEYPDDYSQGGTRLDGKNLVQEWLAKRQGARYVWNRTELMQASLDPSVTHLMGLFEPGDMKYEIHRDSTLDPSLMEMTEAALRLLSRNPRGFFLFVEGGRIDHGHHESRAYRALTETIMFDDAIERAGQLTSEEDTLSLVTADHSHVFSFGGYPLRGSSIFGLAPGKARDRKAYTVLLYGNGPGYVLKDGARPDVTESESGSPEYRQQSAVPLDEETHAGEDVAVFARGPQAHLVHGVQEQTFIAHVMAFAACLEPYTACDLAPPAGTTD
With B1 the “reduction of synovial ED1+ macrophage infiltration in arthritic knees” value [1, 3] was 2 fold, the “reduction of synovial ED2+ macrophage infiltration in arthritic knees” value [1, 3] was 3 fold and the “ED1+ synovial macrophage infiltration in arthritic knee (in words)” value [1, 4] was “mild infiltration; also recorded: very much reduced; also recorded: markedly reduced infiltration”. For the same molecule, the “ED2+ synovial macrophages in arthritic knee (in words)” value [1, 4] was “do not show this activity; also recorded: markedly reduced infiltration”, the “lower quantification of ED1+ macrophages in arthritic knees compared to untreated rats (1× i.a.)” value [1, 5] was 4 fold and the “lower quantification of ED2+ macrophages in arthritic knees compared to untreated rats (1× i.a.)” value [1, 5] was 8 fold. For the same molecule, the “further reduction of ED1+ and ED2+ macrophage counts in arthritic knees” value ([1]; therapeutic setting, 4× AP administration) was about 8 fold, the “ED2+ synovial macrophages in arthritic knee (in words)” value ([1]; therapeutic treatment, 4× AP after first i.a. and in between boosts) was “much reduced” and the “ED1+ synovial macrophage infiltration in arthritic knee (in words)” value ([1]; therapeutic treatment, 4× after first i.a. and in between boosts, AP 700 U/kg, MTX 1 mg/kg) was “reduces ED1+ infiltration; also recorded: very much reduced”. For the same molecule, the “maximum increase of plasma AP levels over baseline” value ([2]; arthritic rats, 700 U/kg i.p.) was 1.7 fold, the “time for plasma AP levels to drop to basal levels” value ([2]; arthritic rats, 700 U/kg i.p.) was “steadily returned to baseline levels” and the “time for plasma AP levels to drop to basal levels” value ([2]; arthritic rats, 700 U/kg i.p., listed as hRESCAP) was at most 4 h. For the same molecule, the “time to maximum (peak) plasma AP level” value ([2]; healthy and arthritic rats, 700 U/kg i.p.) was 1 h, the “peak plasma levels above baseline” value ([2]; healthy and arthritic rats, single i.p. dose of 700 U/kg) was 50-70% and the “maximum increase of plasma AP levels over baseline” value ([2]; healthy rats, 700 U/kg i.p.) was 1.5 fold. For the same molecule, the “persistence of increased plasma AP levels” value ([2]; healthy rats, 700 U/kg i.p.) was “retained for up to 4 hours” and the “persistence of increased plasma AP levels” value ([2]; healthy rats, 700 U/kg i.p., listed as hRESCAP) was “remained stably higher above control level in plasma over 4 hours”.
